Publication PMC2654063, “Three New Structures of Left-Handed RadA Helical Filaments: Structural Flexibility of N-Terminal Domain Is Critical for Recombinase Activity” (PLoS ONE, 2009)
Positions count from the first letter of the chain named. Names and notes keep the numbering of the source.

Substrate: Nc1ncnc2c1ncn2[C@@H]1O[C@H](COP(=O)(O)OP(=O)(O)OP(=O)(O)O)[C@@H](O)[C@H]1O
Assay: purified protein
Format: biochemical, Saccharolobus solfataricus
Details: with ssDNA; labelled compound

B1: SsoRadA (Sulfolobus solfataricus RadA) (Saccharolobus solfataricus P2) (protein)
chain: MSNEVEQKKNIKTINDLPGISQTVINKLIEAGYSSLETLAVASPQDLSVAAGIPLSTAQKIIKEARDALDIRFKTALEVKKERMNVKKISTGSQALDGLLAGGIETRTMTEFFGEFGSGKTQLCHQLSVNVQLPPEKGGLSGKAVYIDTEGTFRWERIENMAKALGLDIDNVMNNIYYIRAINTDHQIAIVDDLQELVSKDPSIKLIVVDSVTSHFRAEYPGRENLAVRQQKLNKHLHQLTRLAEVYDIAVIITNQVMARPDMFYGDPTVAVGGHTLYHVPGIRIQLKKSRGNRRIARVVDAPHLPEGEVVFALTEEGIRDAEE
notes: purified recombinant protein; homo-oligomeric nucleoprotein filament on ssDNA; F73, R72, R83 given
Work on B1 yielded a Km of 398 ± 52 µM and a kcat of 0.000617 ± 5e-05 s⁻¹.

B2: SsoRadA (Sulfolobus solfataricus RadA) (Saccharolobus solfataricus P2; R72G) (protein)
chain: B1 chain with R72G
notes: as for B1
B2 was tested, and the Km was 176 ± 23 µM and the kcat was 0.000267 ± 1.7e-05 s⁻¹.

B3: SsoRadA (Sulfolobus solfataricus RadA) (Saccharolobus solfataricus P2; R72P) (protein)
chain: B1 chain with R72P
notes: as for B1
With B3 the Km was 143 ± 10 µM and the kcat was 0.000267 ± 1.7e-05 s⁻¹.

B4: SsoRadA (Sulfolobus solfataricus RadA) (Saccharolobus solfataricus P2; R72A) (protein)
chain: B1 chain with R72A
notes: as for B1
For B4, the Km was 37 ± 11 µM and the kcat was 0.000183 ± 3.3e-05 s⁻¹.
